Measured values from IntAct's records for PubMed 18583962.

B1: LIM domain-binding protein 1 (Mus musculus), P70662 (parent)
chain: MSVGCACPGCSSKSFKLYSPKEPPNGNAFPPFHPGTMLDRDVGPTPMYPPTYLEPGIGRHTPYGNQTDYRIFELNKRLQNWTEECDNLWWDAFTTEFFEDDAMLTITFCLEDGPKRYTIGRTLIPRYFRSIFEGGATELYYVLKHPKEAFHSNFVSLDCDQGSMVTQHGKPMFTQVCVEGRLYLEFMFDDMMRIKTWHFSIRQHRELIPRSILAMHAQDPQMLDQLSKNITRCGLSNSTLNYLRLCVILEPMQELMSRHKTYSLSPRDCLKTCLFQKWQRMVAPPAEPARQQPSKRRKRKMSGGSTMSSGGGNTNNSNSKKKSPASTFALSSQVPDVMVVGEPTLMGGEFGDEDERLITRLENTQFDAANGIDDEDSFNNSPALGANSPWNSKPPSSQESKSENPTSQASQ
partner: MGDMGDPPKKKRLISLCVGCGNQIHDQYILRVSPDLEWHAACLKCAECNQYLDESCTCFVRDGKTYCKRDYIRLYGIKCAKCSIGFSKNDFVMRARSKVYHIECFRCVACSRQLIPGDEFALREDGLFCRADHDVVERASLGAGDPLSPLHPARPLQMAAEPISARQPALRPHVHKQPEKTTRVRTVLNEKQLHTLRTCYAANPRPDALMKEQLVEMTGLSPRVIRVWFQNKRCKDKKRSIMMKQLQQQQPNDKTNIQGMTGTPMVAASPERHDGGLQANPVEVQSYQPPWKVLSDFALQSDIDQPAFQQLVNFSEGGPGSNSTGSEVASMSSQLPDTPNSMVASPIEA
B2: LIM domain-binding protein 1 (Mus musculus), P70662 (parent)
chain: B1 chain
partner: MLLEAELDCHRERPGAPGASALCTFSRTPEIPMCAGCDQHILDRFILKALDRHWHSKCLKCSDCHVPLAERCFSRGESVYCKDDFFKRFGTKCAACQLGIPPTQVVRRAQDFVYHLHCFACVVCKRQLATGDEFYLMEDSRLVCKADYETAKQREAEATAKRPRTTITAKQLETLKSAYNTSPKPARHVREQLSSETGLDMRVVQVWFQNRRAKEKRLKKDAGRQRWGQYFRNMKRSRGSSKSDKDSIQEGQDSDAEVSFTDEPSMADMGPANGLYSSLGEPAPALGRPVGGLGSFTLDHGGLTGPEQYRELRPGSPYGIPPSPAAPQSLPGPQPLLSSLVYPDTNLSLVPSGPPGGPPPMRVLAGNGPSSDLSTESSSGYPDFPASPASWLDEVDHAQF

Variants of: B1
Settings: with isl1_mouse Isl1, P61372

Variant	effect of a mutation on the interaction
MSVGCACPGCSSKSFKLYSPKEPPNGNAFPPFHPGTMLDRDVGPTPMYPPTYLEPGIGRHTPYGNQTDYRIFELNKRLQNWTEECDNLWWDAFTTEFFEDDAMLTITFCLEDGPKRYTIGRTLIPRYFRSIFEGGATELYYVLKHPKEAFHSNFVSLDCDQGSMVTQHGKPMFTQVCVEGRLYLEFMFDDMMRIKTWHFSIRQHRELIPRSILAMHAQDPQMLDQLSKNITRCGLSNSTLNYLRLCVILEPMQELMSRHKTYSLSPRDCLKTCLFQKWQRMVAPPAEPARQQPSKRRKRKMSGGSTMSSGGGNTNNSNSKKKSPASTFALSSQVPDVMVVGEPTLMGGEFGDEDERLIARLENTQFDAANGIDDEDSFNNSPALGANSPWNSKPPSSQESKSENPTSQASQ [T359A]	disrupting interaction

Variants of: B1
Settings: with isl1_mouse Isl1, P61372
Remark: another data set of the same source

Variant	effect of a mutation on the interaction
MSVGCACPGCSSKSFKLYSPKEPPNGNAFPPFHPGTMLDRDVGPTPMYPPTYLEPGIGRHTPYGNQTDYRIFELNKRLQNWTEECDNLWWDAFTTEFFEDDAMLTITFCLEDGPKRYTIGRTLIPRYFRSIFEGGATELYYVLKHPKEAFHSNFVSLDCDQGSMVTQHGKPMFTQVCVEGRLYLEFMFDDMMRIKTWHFSIRQHRELIPRSILAMHAQDPQMLDQLSKNITRCGLSNSTLNYLRLCVILEPMQELMSRHKTYSLSPRDCLKTCLFQKWQRMVAPPAEPARQQPSKRRKRKMSGGSTMSSGGGNTNNSNSKKKSPASTFALSSQVPDVMVVGEPTLMGGEFGDEDERLIAAAENTQFDAANGIDDEDSFNNSPALGANSPWNSKPPSSQESKSENPTSQASQ [T359A;R360A;L361A]	decreasing interaction

Variants of: B1
Settings: with isl1_mouse Isl1, P61372
Remark: another data set of the same source

Variant	effect of a mutation on the interaction
MSVGCACPGCSSKSFKLYSPKEPPNGNAFPPFHPGTMLDRDVGPTPMYPPTYLEPGIGRHTPYGNQTDYRIFELNKRLQNWTEECDNLWWDAFTTEFFEDDAMLTITFCLEDGPKRYTIGRTLIPRYFRSIFEGGATELYYVLKHPKEAFHSNFVSLDCDQGSMVTQHGKPMFTQVCVEGRLYLEFMFDDMMRIKTWHFSIRQHRELIPRSILAMHAQDPQMLDQLSKNITRCGLSNSTLNYLRLCVILEPMQELMSRHKTYSLSPRDCLKTCLFQKWQRMVAPPAEPARQQPSKRRKRKMSGGSTMSSGGGNTNNSNSKKKSPASTFALSSQVPDVMVVGEPTLMGGEFGDEDEAAATRLENTQFDAANGIDDEDSFNNSPALGANSPWNSKPPSSQESKSENPTSQASQ [R356A;L357A;I358A]	disrupting interaction

Variants of: B2
Settings: with lhx3_mouse Lhx3, P50481

Variant	effect of a mutation on the interaction
MSVGCACPGCSSKSFKLYSPKEPPNGNAFPPFHPGTMLDRDVGPTPMYPPTYLEPGIGRHTPYGNQTDYRIFELNKRLQNWTEECDNLWWDAFTTEFFEDDAMLTITFCLEDGPKRYTIGRTLIPRYFRSIFEGGATELYYVLKHPKEAFHSNFVSLDCDQGSMVTQHGKPMFTQVCVEGRLYLEFMFDDMMRIKTWHFSIRQHRELIPRSILAMHAQDPQMLDQLSKNITRCGLSNSTLNYLRLCVILEPMQELMSRHKTYSLSPRDCLKTCLFQKWQRMVAPPAEPARQQPSKRRKRKMSGGSTMSSGGGNTNNSNSKKKSPASTFALSSQVPDVMVVGEPTAMGGEFGDEDERLITRLENTQFDAANGIDDEDSFNNSPALGANSPWNSKPPSSQESKSENPTSQASQ [L345A]	disrupting interaction

Variants of: B2
Settings: with lhx3_mouse Lhx3, P50481
Remark: another data set of the same source

Variant	effect of a mutation on the interaction
MSVGCACPGCSSKSFKLYSPKEPPNGNAFPPFHPGTMLDRDVGPTPMYPPTYLEPGIGRHTPYGNQTDYRIFELNKRLQNWTEECDNLWWDAFTTEFFEDDAMLTITFCLEDGPKRYTIGRTLIPRYFRSIFEGGATELYYVLKHPKEAFHSNFVSLDCDQGSMVTQHGKPMFTQVCVEGRLYLEFMFDDMMRIKTWHFSIRQHRELIPRSILAMHAQDPQMLDQLSKNITRCGLSNSTLNYLRLCVILEPMQELMSRHKTYSLSPRDCLKTCLFQKWQRMVAPPAEPARQQPSKRRKRKMSGGSTMSSGGGNTNNSNSKKKSPASTFALSSQVPDVMVVGEPALMGGEFGDEDERLITRLENTQFDAANGIDDEDSFNNSPALGANSPWNSKPPSSQESKSENPTSQASQ [T344A]	disrupting interaction

Variants of: B2
Settings: with lhx3_mouse Lhx3, P50481
Remark: another data set of the same source

Variant	effect of a mutation on the interaction
MSVGCACPGCSSKSFKLYSPKEPPNGNAFPPFHPGTMLDRDVGPTPMYPPTYLEPGIGRHTPYGNQTDYRIFELNKRLQNWTEECDNLWWDAFTTEFFEDDAMLTITFCLEDGPKRYTIGRTLIPRYFRSIFEGGATELYYVLKHPKEAFHSNFVSLDCDQGSMVTQHGKPMFTQVCVEGRLYLEFMFDDMMRIKTWHFSIRQHRELIPRSILAMHAQDPQMLDQLSKNITRCGLSNSTLNYLRLCVILEPMQELMSRHKTYSLSPRDCLKTCLFQKWQRMVAPPAEPARQQPSKRRKRKMSGGSTMSSGGGNTNNSNSKKKSPASTFALSSQVPDVAVVGEPTLMGGEFGDEDERLITRLENTQFDAANGIDDEDSFNNSPALGANSPWNSKPPSSQESKSENPTSQASQ [M338A]	disrupting interaction
